Measurements published in patent publication US20220119784.

Key:
[1] = system: PDCD-1 megaTAL parent (Artificial Sequence); experiment: cell_activity; details: primary human T cells, mRNA electroporation, TIDE
[2] = system: PDCD-1 megaTAL thermostable variant (Artificial Sequence); experiment: cell_activity; details: nearly 80%; primary human T cells, mRNA electroporation, TIDE

## PDCD-1 target site
[1]
  activity: < 20 % editing
[2]
  activity: 80 % editing
